This note sets out measurements from patent publication US20060264369, “Aptamers to von Willebrand Factor and their use as thrombotic disease therapeutics” (published 2006).

Data set [1] has as its target von Willebrand factor A1 domain (human) (Homo sapiens, UniProt P04275 SEQ:13-246). Description: filter; 100 nM protein. The method, then:
All unique clones were assayed in a 3-point dot blot screen (no protein target control, 100 nM human vWF A1 domain (SEQ ID NO 5), or 100 nM rabbit vWF A1 domain (SEQ ID NO 6). The data are presented in the third and fourth columns of Table 14 below as the ratio of the fraction of the aptamer bound to the nitrocellulose in the presence of the target protein to the fraction of aptamer bound in the absence of the target protein.

For data set [2], the target named is von Willebrand factor A1 domain (Homo sapiens, UniProt P04275 SEQ:13-246). Nature of the data set: filter; DPBS, 0.1 mg/mL BSA, RT. Particulars: label: 5'-32P. The method, then:
Based on this initial screen, KD's were determined for 16 of the best vWF dependent binding sequences using the dot blot assay. […] A 6 point protein titration of human vWF A1 domain (SEQ ID NO 5) was used in the dot blot assay (333 nM, 100 nM, 33 nM, 10 nM, 3 nM, 0 nM) in 1× DPBS plus 0.1 mg/mL BSA at room temperature for 30 minutes. KD values were calculated by fitting the equation y=(max/(1+K/protein))+yint using KaleidaGraph (KaleidaGraph v. 3.51, Synergy Software).

The target of data set [3] is von Willebrand factor full length (Homo sapiens, UniProt P04275 SEQ:764-2813). Description: filter. Particulars: tags: Calbiochem 681300. The method, then: For KD determination, chemically synthesized aptamers were purified using denaturing polyacrylamide gel electrophoresis, 5′end labeled with γ-³²P ATP and were tested for direct binding to full length human vWF (Calbiochem Cat.# 681300, La Jolla, Calif.). An 8 point protein titration was used in the dot blot binding assay (100 nM, 30 nM, 10 nM, 3 nM, 1 nM, 300 pM, 100 pM, 0 pM)) in 1× Dulbecco's PBS containing […] (final volume of 50 uL) for 30 minutes at room temperature. KD values were calculated by fitting the equation y=(max/(1+K/protein))+yint using KaleidaGraph (KaleidaGraph v. 3.51, Synergy Software).

Positions count from the first letter of the chain named.

B1: AMX200.F9 (ssDNA)
DNA: CTACCTACGATCTGACTAGCGGAATGAGGATGCTGATGGATTGGTCAGGTCTGCTGGCTGCTTACTCTCATGTAGTTCC
B1: the binding signal in data set [1] is 0.97 ratio to no protein.

B2: AMX202.A3 (ssDNA)
DNA: B1 DNA with G29A, A30G, T31C, G44C
Take B2: the binding signal in data set [1] is 2.28 ratio to no protein.

B3: AMX202.B8 (ssDNA)
DNA: B1 DNA with G29T, G44C
B3: the binding signal in data set [1] was 1.66 ratio to no protein.

B4: AMX202.H10 (ssDNA)
DNA: B1 DNA with G29A, T31G, A36G, G44C
For B4, the binding signal in data set [1] is 1.92 ratio to no protein.

B5: AMX202.D6 (ssDNA)
DNA: B1 DNA with G29A, T31G, G44C
With B5, the binding signal in data set [1] is 1.94 ratio to no protein.

B6: AMX200.E8 (ssDNA)
DNA: B1 DNA with A36G, G44C, C54T
Regarding B6, the binding signal in data set [1] was 1.04 ratio to no protein.

B7: AMX199.G5 (ssDNA)
DNA: CTACCTACGATCTGACTAGCGAAACACTAGGTTGGTTAGGATTGGTGTGTTCCCGCCCTGCTTACTCTCATGTAGTTCC
As for B7, in data set [1], the binding signal is 1.41 ratio to no protein.

B8: AMX199.F11 (ssDNA)
DNA: B7 DNA with C52T, C54T, C57T
Take B8: in data set [1], the binding signal is 1.44 ratio to no protein.

B9: AMX199.F8 (ssDNA)
DNA: CTACCTACGATCTGACTAGCAAGGGGATTGGCTCCGGGTCTGGCGTGCTTGGCACCTCTGGCTTACTCTCATGTAGTTCC
B9: the binding signal in data set [1] was 1.78 ratio to no protein.

B10: AMX199.D8 (ssDNA)
DNA: B9 DNA with C55T, C58T, T59C
With B10, the binding signal in data set [1] was 1.89 ratio to no protein.

B11: AMX199.B6 (ssDNA)
DNA: B9 DNA with C53T, T59C
For the molecule B11, the binding signal in data set [1] was 2.01 ratio to no protein.

B12: AMX202.F6 (ssDNA)
DNA: B9 DNA with T50C, C58T, T59C
In the case of B12, the binding signal in data set [1] was 1.49 ratio to no protein.

B13: AMX200.E10 (ssDNA)
DNA: B9 DNA with T50C, C58T
For the molecule B13, the binding signal in data set [1] is 1.69 ratio to no protein.

B14: AMX203.D6 (mixed)
DNA: GGAGCGCACTCAGCCACAGTTCTGTCGGTGATGAATTAGCGCGAGAGCTGTGGGACGTTTCGACCTCTCTGCTAGC
modifications: 2'-OH purines, deoxy pyrimidines
For orientation: Kd means the equilibrium constant for the complex coming apart. B14: in data set [2], the Kd came to 523 nM.

B15: AMX203.A1 (mixed)
DNA: B14 DNA with A44G
modifications: 2'-OH purines, deoxy pyrimidines
Consider B15, for which, in data set [2], the Kd is 1150 nM.

B16: AMX200.A11 (ssDNA)
DNA: CTACCTACGATCTGACTAGCTGAGTAGTTAGTAACTTTTTATTATGGTTTGGTGGGTCTGGCTTACTCTCATGTAGTTCC
As to B16, the binding signal in data set [1] was 1.49 ratio to no protein.

B17: AMX200.H8 (ssDNA)
DNA: B16 DNA with T29C, C35T, T57C
For B17, the binding signal in data set [1] was 1.86 ratio to no protein.

B18: AMX206.F9 (mixed)
DNA: GGAGCGCACTCAGCCACGGAGCGTCGGTGATGGATTAGCGCGGCTCCGTGGTACACATTTCGACCTCTCTGCTAGC
modifications: 2'-OH purines, deoxy pyrimidines
As for B18, in data set [2], the Kd worked out at 139 nM.

B19: AMX205.F9 (mixed)
DNA: B18 DNA with A55G, A57C
modifications: 2'-OH purines, deoxy pyrimidines
As for B19, in data set [2], the Kd stood at 145 nM.

B20: AMX206.H9 (mixed)
DNA: B18 DNA with C44T, A57C
modifications: 2'-OH purines, deoxy pyrimidines
Regarding B20, in data set [2], the Kd came to 109 nM.

B21: AMX206.E7 (mixed)
DNA: B18 DNA with A57C
modifications: 2'-OH purines, deoxy pyrimidines
Take B21: in data set [2], the Kd stood at 151 nM.

B22: AMX205.H11 (mixed)
DNA: GGAGCGCACTCAGCCACGGCACGACGGTGATGGATTAGCGCGGTGTCGGTGGTGTCATTTCGACCTCTCTGCTAGC
modifications: 2'-OH purines, deoxy pyrimidines
As for B22, in data set [2], the Kd worked out at 144 nM.

B23: AMX206.A10 (mixed)
DNA: B22 DNA with C22T, G33A
modifications: 2'-OH purines, deoxy pyrimidines
In the case of B23, in data set [2], the Kd worked out at 111 nM.

B24: AMX206.D7 (mixed)
DNA: B22 DNA with G33A, C56T
modifications: 2'-OH purines, deoxy pyrimidines
As for B24, the Kd in data set [2] is 187 nM.

B25: AMX205.D11 (mixed)
DNA: B22 DNA with G33A
modifications: 2'-OH purines, deoxy pyrimidines
Take B25: the Kd in data set [2] was found to be 124 nM.

B26: AMX205.H8 (mixed)
DNA: GGAGCGCACTCAGCCACAAACGGACGGTGATGGATTAACGCGGGTTTATGGCAAGGTTTCGACCTCTCTGCTAGC
modifications: 2'-OH purines, deoxy pyrimidines
On to B26, for which the Kd in data set [2] came out at 788 nM.

B27: ARC1362 (mixed)
mixed: GCGUGCAGUGCCUUCGGCCGTGCGGTGCCUCCGUCACGC
modifications: 2'-OMe at 1-4,8-18,20,22,27,28,30,33,34,36-39, rest deoxy; PS between 4 and 5; 3'-idT
Take B27: the Kd in data set [3] came to 9.9 nM.

B28: ARC1364 (mixed)
mixed: B27 mixed
modifications: 2'-OMe at 1-4,8-18,20,22,27,28,30,33,34,36-39, rest deoxy; PS between 6 and 7; 3'-idT
Turning to B28, in data set [3], the Kd came out at 8.2 nM.

B29: ARC1365 (mixed)
mixed: B27 mixed
modifications: 2'-OMe at 1-4,8-18,20,22,27,28,30,33,34,36-39, rest deoxy; PS between 7 and 8; 3'-idT
B29: in data set [3], the Kd was 10.8 nM.

B30: ARC1376 (mixed)
mixed: B27 mixed
modifications: 2'-OMe at 1-4,8-18,20,22,27,28,30,33,34,36-39, rest deoxy; PS between 29 and 30; 3'-idT
Consider B30, for which the Kd in data set [3] came to 4.4 nM.

B31: ARC1369 (mixed)
mixed: B27 mixed
modifications: 2'-OMe at 1-4,8-18,20,22,27,28,30,33,34,36-39, rest deoxy; PS between 21 and 22; 3'-idT
B31: in data set [3], the Kd was 16.3 nM.

B32: ARC1371 (mixed)
mixed: B27 mixed
modifications: 2'-OMe at 1-4,8-18,20,22,27,28,30,33,34,36-39, rest deoxy; PS between 23 and 24; 3'-idT
As for B32, the Kd in data set [3] stood at 8.4 nM.

B33: ARC1380 (mixed)
mixed: B27 mixed
modifications: 2'-OMe at 1-4,8-18,20,22,27,28,30,33,34,36-39, rest deoxy; PS between 34 and 35; 3'-idT
Turning to B33, in data set [3], the Kd amounted to 12 nM.

B34: ARC1363 (mixed)
mixed: B27 mixed
modifications: 2'-OMe at 1-4,8-18,20,22,27,28,30,33,34,36-39, rest deoxy; PS between 5 and 6; 3'-idT
As for B34, the Kd in data set [3] turned out to be 12.7 nM.

B35: ARC1379 (mixed)
mixed: B27 mixed
modifications: 2'-OMe at 1-4,8-18,20,22,27,28,30,33,34,36-39, rest deoxy; PS between 32 and 33; 3'-idT
B35: in data set [3], the Kd came out at 10.4 nM.

B36: ARC1378 (mixed)
mixed: B27 mixed
modifications: 2'-OMe at 1-4,8-18,20,22,27,28,30,33,34,36-39, rest deoxy; PS between 31 and 32; 3'-idT
For the molecule B36, the equilibrium dissociation constant (Kd) in data set [3] was 9.1 nM.

B37: ARC1372 (mixed)
mixed: B27 mixed
modifications: 2'-OMe at 1-4,8-18,20,22,27,28,30,33,34,36-39, rest deoxy; PS between 24 and 25; 3'-idT
B37: the Kd in data set [3] came to 23.5 nM.

B38: ARC1366 (mixed)
mixed: B27 mixed
modifications: 2'-OMe at 1-4,8-18,20,22,27,28,30,33,34,36-39, rest deoxy; PS between 18 and 19; 3'-idT
Turning to B38, the Kd in data set [3] worked out at 15.5 nM.

B39: ARC1367 (mixed)
mixed: B27 mixed
modifications: 2'-OMe at 1-4,8-18,20,22,27,28,30,33,34,36-39, rest deoxy; PS between 19 and 20; 3'-idT
With B39, the Kd in data set [3] was 13.9 nM.

B40: ARC1370 (mixed)
mixed: B27 mixed
modifications: 2'-OMe at 1-4,8-18,20,22,27,28,30,33,34,36-39, rest deoxy; PS between 22 and 23; 3'-idT
Turning to B40, in data set [3], the Kd stood at 10.1 nM.

B41: ARC1381 (mixed)
mixed: B27 mixed
modifications: 2'-OMe at 1-4,8-18,20,22,27,28,30,33,34,36-39, rest deoxy; PS between 35 and 36; 3'-idT
Consider B41, for which, in data set [3], the Kd stood at 8.7 nM.

B42: ARC1375 (mixed)
mixed: B27 mixed
modifications: 2'-OMe at 1-4,8-18,20,22,27,28,30,33,34,36-39, rest deoxy; PS between 28 and 29; 3'-idT
In the case of B42, the Kd in data set [3] amounted to 8.8 nM.

B43: ARC1373 (mixed)
mixed: B27 mixed
modifications: 2'-OMe at 1-4,8-18,20,22,27,28,30,33,34,36-39, rest deoxy; PS between 25 and 26; 3'-idT
In the case of B43, in data set [3], the Kd was determined as 7.1 nM.

B44: ARC1374 (mixed)
mixed: B27 mixed
modifications: 2'-OMe at 1-4,8-18,20,22,27,28,30,33,34,36-39, rest deoxy; PS between 26 and 27; 3'-idT
Turning to B44, in data set [3], the Kd was found to be 9.5 nM.

B45: ARC1377 (mixed)
mixed: B27 mixed
modifications: 2'-OMe at 1-4,8-18,20,22,27,28,30,33,34,36-39, rest deoxy; PS between 30 and 31; 3'-idT
For the molecule B45, in data set [3], the Kd is 7.4 nM.
